Experimental data published in IntAct's records for PubMed 20696164.

B1: E3 ubiquitin-protein ligase SH3RF1 (Homo sapiens), Q7Z6J0 (parent)
chain: MDESALLDLLECPVCLERLDASAKVLPCQHTFCKRCLLGIVGSRNELRCPECRTLVGSGVEELPSNILLVRLLDGIKQRPWKPGPGGGSGTNCTNALRSQSSTVANCSSKDLQSSQGGQQPRVQSWSPPVRGIPQLPCAKALYNYEGKEPGDLKFSKGDIIILRRQVDENWYHGEVNGIHGFFPTNFVQIIKPLPQPPPQCKALYDFEVKDKEADKDCLPFAKDDVLTVIRRVDENWAEGMLADKIGIFPISYVEFNSAAKQLIEWDKPPVPGVDAGECSSAAAQSSTAPKHSDTKKNTKKRHSFTSLTMANKSSQASQNRHSMEISPPVLISSSNPTAAARISELSGLSCSAPSQVHISTTGLIVTPPPSSPVTTGPSFTFPSDVPYQAALGTLNPPLPPPPLLAATVLASTPPGATAAAAAAGMGPRPMAGSTDQIAHLRPQTRPSVYVAIYPYTPRKEDELELRKGEMFLVFERCQDGWFKGTSMHTSKIGVFPGNYVAPVTRAVTNASQAKVPMSTAGQTSRGVTMVSPSTAGGPAQKLQGNGVAGSPSVVPAAVVSAAHIQTSPQAKVLLHMTGQMTVNQARNAVRTVAAHNQERPTAAVTPIQVQNAAGLSPASVGLSHHSLASPQPAPLMPGSATHTAAISISRASAPLACAAAAPLTSPSITSASLEAEPSGRIVTVLPGLPTSPDSASSACGNSSATKPDKDSKKEKKGLLKLLSGASTKRKPRVSPPASPTLEVELGSAELPLQGAVGPELPPGGGHGRAGSCPVDGDGPVTTAVAGAALAQDAFHRKASSLDSAVPIAPPPRQACSSLGPVLNESRPVVCERHRVVVSYPPQSEAELELKEGDIVFVHKKREDGWFKGTLQRNGKTGLFPGSFVENI
B2: E3 ubiquitin-protein ligase SH3RF3 (Homo sapiens), Q8TEJ3 (parent)
chain: MLLGASWLCASKAAAAAAQSEGDEDRPGERRRRRAAATAAGAGEDMDESSLLDLLECSVCLERLDTTAKVLPCQHTFCRRCLESIVCSRHELRCPECRILVGCGVDELPANILLVRLLDGIRQRPRAGTSPGGSPPARPIPGQSAAPTLAGGGGGAAGSTPGSPVFLSAAAGSTAGSLRELATSRTAPAAKNPCLLPYGKALYSYEGKEPGDLKFNKGDIIVLRRKVDEQWYHGELHGTQGFLPASYIQCIQPLPHAPPQGKALYDFEMKDKDQDKDCLTFTKDEILTVLRRVDENWAEGMLGDKIGIFPLLYVELNDSAKQLIEMDKPCPAAASSCNASLPSDSGAVASVAPSPTLSSSGAVSAFQRRVDGKKNTKKRHSFTALSVTHRSSQAASHRHSMEISAPVLISSSDPRAAARIGDLAHLSCAAPTQDVSSSAGSTPTAVPRAASVSGEQGTPPKVQLPLNVYLALYAYKPQKSDELELHKGEMYRVLEKCQDGWFKGASLRTGVSGVFPGNYVTPVSRVPAGGAGPPRNNVVGGSPLAKGITTTMHPGSGSLSSLATATRPALPITTPQAHAQHPTASPPTGSCLRHSAQPTASQARSTISTAAHSAAQAQDRPTATVSPLRTQNSPSRLPATSLRPHSVVSPQHSHQPPVQMCPRPAIPLTSAASAITPPNVSAANLNGEAGGGPIGVLSTSSPTNTGCKLDEKKSEKKEKKSGLLKLLAGASTKKKSRSPPSVSPTHDPQVAVDALLQGAVGPEVSSLSIHGRAGSCPIESEMQGAMGMEPLHRKAGSLDLNFTSPSRQAPLSMAAIRPEPKLLPRERYRVVVSYPPQSEAEIELKEGDIVFVHKKREDGWYKGTLQRNGRTGLFPGSFVESF

Variants of: B1
Conditions: with ubc_human UBC

| Variant | effect of a mutation on the interaction |
| --- | --- |
| H30A | decreasing interaction |
| C28A | decreasing interaction |

Variants of: B2
Conditions: with rac1_human RAC1, P63000

| Variant | effect of a mutation on the interaction |
| --- | --- |
| L385A | decreasing interaction |

Variants of: B2
Conditions: with rac1_human RAC1, P63000
Remark: another data set of the same source

| Variant | effect of a mutation on the interaction |
| --- | --- |
| P414A | decreasing interaction |

Variants of: B2
Conditions: with rac1_human RAC1, P63000
Remark: another data set of the same source

| Variant | effect of a mutation on the interaction |
| --- | --- |
| P406A | disrupting interaction |
| S404P | disrupting interaction |
| I403N | disrupting interaction |

Variants of: B2
Conditions: with ubc_human UBC

| Variant | effect of a mutation on the interaction |
| --- | --- |
| C73A | decreasing interaction |
| H75A | decreasing interaction |
